Read-outs that look alike come from different tables or passages of the source. Non-standard residues stand in square brackets, D forms with d. No end group written: not given here. Met(O2) = CS(=O)(=O)CC[C@H](N)C(=O)O; d(αMeK) = C[C@@](N)(CCCCN)C(=O)O; Met(O) = CS(=O)CC[C@H](N)C(=O)O; αMeOrn = C[C@](N)(CCCN)C(=O)O; αMeK = C[C@](N)(CCCCN)C(=O)O; Nle = CCCC[C@H](N)C(=O)O; Aib = CC(C)(N)C(=O)O
How the values were obtained:
Test in all cases: cell-based or functional assay
human glucagon receptor = human glucagon receptor (human, UniProt P47871 26-477)
human GIP receptor [1] = target: T1, human GIP receptor (human, UniProt P48546 22-466)
T1 sequence (looked up): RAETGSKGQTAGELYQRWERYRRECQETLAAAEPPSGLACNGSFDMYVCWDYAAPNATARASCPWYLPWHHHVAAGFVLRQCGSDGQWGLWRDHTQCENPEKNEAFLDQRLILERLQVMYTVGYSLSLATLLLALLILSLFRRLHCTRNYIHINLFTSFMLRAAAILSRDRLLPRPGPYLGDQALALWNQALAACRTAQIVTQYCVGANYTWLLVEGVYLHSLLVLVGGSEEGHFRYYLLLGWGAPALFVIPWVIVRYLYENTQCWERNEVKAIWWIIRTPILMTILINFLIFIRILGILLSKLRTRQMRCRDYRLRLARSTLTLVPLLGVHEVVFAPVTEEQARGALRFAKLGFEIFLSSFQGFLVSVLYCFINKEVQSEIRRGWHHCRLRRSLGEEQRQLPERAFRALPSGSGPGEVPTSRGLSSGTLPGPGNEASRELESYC

human GLP-1 receptor [2] = target: T2, human GLP-1 receptor (human, UniProt P43220 24-463)
human GLP-1 receptor [3] = target: T2, human GLP-1 receptor; remark: listed apart in the source
Target sequence in this assay (P43220 24-463): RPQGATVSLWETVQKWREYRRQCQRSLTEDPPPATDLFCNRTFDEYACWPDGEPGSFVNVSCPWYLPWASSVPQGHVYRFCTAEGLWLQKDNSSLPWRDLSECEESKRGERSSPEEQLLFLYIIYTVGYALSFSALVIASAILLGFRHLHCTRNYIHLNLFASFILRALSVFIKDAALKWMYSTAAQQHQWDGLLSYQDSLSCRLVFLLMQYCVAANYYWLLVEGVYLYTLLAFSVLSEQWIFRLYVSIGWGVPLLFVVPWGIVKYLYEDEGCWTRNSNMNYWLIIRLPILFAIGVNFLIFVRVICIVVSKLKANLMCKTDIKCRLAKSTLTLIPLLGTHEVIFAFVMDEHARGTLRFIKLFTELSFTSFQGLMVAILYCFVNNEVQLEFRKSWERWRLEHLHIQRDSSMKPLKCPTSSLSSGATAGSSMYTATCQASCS

human GIP receptor [4] = target: T1, human GIP receptor; remark: listed apart in the source

human glucagon receptor, sequence (P47871 26-477): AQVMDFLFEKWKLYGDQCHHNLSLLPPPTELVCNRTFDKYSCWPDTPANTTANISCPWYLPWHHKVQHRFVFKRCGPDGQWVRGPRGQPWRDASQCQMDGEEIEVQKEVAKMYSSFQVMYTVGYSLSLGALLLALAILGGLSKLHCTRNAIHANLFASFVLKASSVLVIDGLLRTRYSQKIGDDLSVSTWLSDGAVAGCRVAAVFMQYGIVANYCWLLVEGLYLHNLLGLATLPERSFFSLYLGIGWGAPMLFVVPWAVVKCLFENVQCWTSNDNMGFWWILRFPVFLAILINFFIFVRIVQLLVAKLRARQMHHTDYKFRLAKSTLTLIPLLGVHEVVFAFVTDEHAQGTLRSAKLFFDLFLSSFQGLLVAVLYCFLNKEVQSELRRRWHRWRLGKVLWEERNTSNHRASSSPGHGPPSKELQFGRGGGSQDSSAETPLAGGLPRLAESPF

YXEGTFTSDLSIQMEEEAVRLFIEWLKAGGPSSGAPPPS (Aib at position 2; C-terminal amide (-NH2)) [SEQ ID NO: 8] was tested, and the “EC50 hGLUC R [pM], cAMP formation” value (human glucagon receptor) was greater than 1e+06 pM and the “EC50 hGIP R [pM], cAMP formation” value (human GIP receptor [1]) was 9.8 pM.

With Y[Aib]EGTFTSDLSIQMEKEAVRLFIEWLKAGGPSSGAPPPS-NH2 [SEQ ID NO: 9] the “EC50 hGLP-1 R [pM], cAMP formation” value (human GLP-1 receptor [2]) was 1.1 pM, the “EC50 hGLUC R [pM], cAMP formation” value (human glucagon receptor) was greater than 1e+06 pM and the “EC50 hGIP R [pM], cAMP formation” value (human GIP receptor [1]) was 3.1 pM.

With Y[Aib]EGTFTSDLSIQLEKEAVRLFIEWLKAGGPSSGAPPPS-NH2 [SEQ ID NO: 10] the “EC50 hGLUC R [pM], cAMP formation” value (human glucagon receptor) was greater than 1e+06 pM and the “EC50 hGIP R [pM], cAMP formation” value (human GIP receptor [1]) was 6.8 pM.

Y[Aib]EGTFTSDLSIQ[Nle]EKEAVRLFIEWLKAGGPSSGAPPPSK-NH2 [SEQ ID NO: 12] was tested, and the “EC50 hGLUC R [pM], cAMP formation” value (human glucagon receptor) was greater than 1e+06 pM and the “EC50 hGIP R [pM], cAMP formation” value (human GIP receptor [1]) was 8.7 pM.

For Y[Aib]EGTFTSDLSIQ[Met(O)]EKEAVRLFIEWLKAGGPSSGAPPPS-NH2 [SEQ ID NO: 13], the “EC50 hGLP-1 R [pM], cAMP formation” value (human GLP-1 receptor [2]) was 0.4 pM, the “EC50 hGLUC R [pM], cAMP formation” value (human glucagon receptor) was greater than 1e+06 pM and the “EC50 hGIP R [pM], cAMP formation” value (human GIP receptor [1]) was 8.1 pM.

With Y[Aib]EGTFTSDLSIQ[Met(O2)]EKEAVRLFIEWLKAGGPSSGAPPPS-NH2 [SEQ ID NO: 14] the “EC50 hGLP-1 R [pM], cAMP formation” value (human GLP-1 receptor [2]) was 0.6 pM, the “EC50 hGLUC R [pM], cAMP formation” value (human glucagon receptor) was greater than 1e+06 pM and the “EC50 hGIP R [pM], cAMP formation” value (human GIP receptor [1]) was 4.1 pM.

Y[Aib]EGTFTSDLSIQLEEEAVRLFIEWLKAGGPSSGAPPPS-NH2 [SEQ ID NO: 15] was tested, and the “EC50 hGLP-1 R [pM], cAMP formation” value (human GLP-1 receptor [2]) was 1.4 pM, the “EC50 hGLUC R [pM], cAMP formation” value (human glucagon receptor) was greater than 1e+06 pM and the “EC50 hGIP R [pM], cAMP formation” value (human GIP receptor [1]) was 7.3 pM.

In the case of Y[Aib]EGTFTSDLSIQLEEEAV[Aib]LFIEWLKAGGPSSGAPPPS-NH2 [SEQ ID NO: 16], the “EC50 hGLP-1 R [pM], cAMP formation” value (human GLP-1 receptor [2]) is reported as 1 pM, the “EC50 hGLUC R [pM], cAMP formation” value (human glucagon receptor) is reported as greater than 1e+06 pM and the “EC50 hGIP R [pM], cAMP formation” value (human GIP receptor [1]) is reported as 1.5 pM.

For Y[Aib]EGTFTSDLSIQLEEEAV[αMeK]LFIEWLKAGGPSSGAPPPS-NH2 [SEQ ID NO: 17], the “EC50 hGLP-1 R [pM], cAMP formation” value (human GLP-1 receptor [2]) was 1.1 pM, the “EC50 hGLUC R [pM], cAMP formation” value (human glucagon receptor) was greater than 1e+06 pM and the “EC50 hGIP R [pM], cAMP formation” value (human GIP receptor [1]) was 1.8 pM.

In the case of Y[Aib]EGTFTSDLSIQLEEEAV[d(αMeK)]LFIEWLKAGGPSSGAPPPS-NH2 [SEQ ID NO: 18], the “EC50 hGLP-1 R [pM], cAMP formation” value (human GLP-1 receptor [2]) is reported as 2 pM, the “EC50 hGLUC R [pM], cAMP formation” value (human glucagon receptor) is reported as greater than 1e+06 pM and the “EC50 hGIP R [pM], cAMP formation” value (human GIP receptor [1]) is reported as 36.1 pM.

In the case of Y[Aib]EGTFTSDLSIQLEEEAV[αMeOrn]LFIEWLKAGGPSSGAPPPS-NH2 [SEQ ID NO: 19], the “EC50 hGLUC R [pM], cAMP formation” value (human glucagon receptor) is reported as greater than 1e+06 pM and the “EC50 hGIP R [pM], cAMP formation” value (human GIP receptor [1]) is reported as 2.2 pM.

In the case of Y[Aib]EGTFTSDLSIQLEKEAVRLFIEWLKAGGPSSGAPPPS-NH2 [SEQ ID NO: 20], the “EC50 hGLP-1 R [pM], cAMP formation” value (human GLP-1 receptor [2]) is reported as 1 pM, the “EC50 hGLUC R [pM], cAMP formation” value (human glucagon receptor) is reported as greater than 1e+06 pM and the “EC50 hGIP R [pM], cAMP formation” value (human GIP receptor [1]) is reported as 3.9 pM.

In the case of YAEGTFTSDVSIYLEGQAAKEFIAWLVKGR (ends and bridges not checked) [Tyr(1)Ile(12)-GLP1], the “EC50 hGLP-1 R [pM], cAMP formation” value (human GLP-1 receptor [3]) is reported as 5 pM and the “EC50 hGIP R [pM], cAMP formation” value (human GIP receptor [4]) is reported as 3660 pM.
